Data: PMC7949025, “Biophysical characterization of the ETV6 PNT domain polymerization interfaces” (The Journal of Biological Chemistry, 2021)

T1: biotinylated A93D-PNT domain (ETV6 residues 43-135, A93D, with Avitag) (human, UniProt P41212 43-135, A93D, biotin on the Avitag (~50 to 95% biotinylated))
T1 construct: ETV6, human, residues 43-135; made from the V112E construct by introducing A93D and E112V; also called biotinylated A93D-PNT domain ligand; A93D-PNT domain ligand; source: E. coli BL21 (λDE3) co-transformed with pET21a-BirA, purified (Ni-NTA, thrombin cleavage); not shown: His6, N-terminal, cleaved; Avitag, N-terminal, kept
T1 sequence (looked up): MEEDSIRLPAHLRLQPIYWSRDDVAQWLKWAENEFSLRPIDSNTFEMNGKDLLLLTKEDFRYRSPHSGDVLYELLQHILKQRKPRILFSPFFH

B1: N85A-V112E-PNT domain (domain or fragment, human, UniProt P41212 40-125, looked up)
chain: ALRMEEDSIRLPAHLRLQPIYWSRDDVAQWLKWAENEFSLRPIDSATFEMNGKALLLLTKEDFRYRSPHSGDELYELLQHILKQRK
notes: ETV6 PNT domain, human; source: E. coli BL21 (λDE3), purified (Ni-NTA, thrombin cleavage); not shown: His6, N-terminal, cleaved
B2: R63A-V112E-PNT domain (domain or fragment, human, UniProt P41212 40-125, looked up)
chain: ALRMEEDSIRLPAHLRLQPIYWSADDVAQWLKWAENEFSLRPIDSNTFEMNGKALLLLTKEDFRYRSPHSGDELYELLQHILKQRK
notes: as for B1
B3: R105A-V112E-PNT domain (domain or fragment, human, UniProt P41212 40-125, looked up)
chain: ALRMEEDSIRLPAHLRLQPIYWSRDDVAQWLKWAENEFSLRPIDSNTFEMNGKALLLLTKEDFRYASPHSGDELYELLQHILKQRK
notes: as for B1
B4: Y104A-V112E-PNT domain (domain or fragment, human, UniProt P41212 40-125, looked up)
chain: ALRMEEDSIRLPAHLRLQPIYWSRDDVAQWLKWAENEFSLRPIDSNTFEMNGKALLLLTKEDFRARSPHSGDELYELLQHILKQRK
notes: as for B1
B5: T98A-V112E-PNT domain (domain or fragment, human, UniProt P41212 40-125, looked up)
chain: ALRMEEDSIRLPAHLRLQPIYWSRDDVAQWLKWAENEFSLRPIDSNTFEMNGKALLLLAKEDFRYRSPHSGDELYELLQHILKQRK
notes: as for B1
B6: N90A-V112E-PNT domain (domain or fragment, human, UniProt P41212 40-125, looked up)
chain: ALRMEEDSIRLPAHLRLQPIYWSRDDVAQWLKWAENEFSLRPIDSNTFEMAGKALLLLTKEDFRYRSPHSGDELYELLQHILKQRK
notes: ETV6 PNT domain, human; gene purchased commercially (Biomatik); source: E. coli BL21 (λDE3), purified (Ni-NTA, thrombin cleavage); not shown: His6, N-terminal, cleaved

molecular target: T1, biotinylated A93D-PNT domain (ETV6 …); assay: SPR; biotinylated A93D-PNT domain ligand captured on streptavidin Sensor Chip SA, PNT domain analytes flowed; Biacore X100, 25 °C, HBS-EP+ (10 mM HEPES, 150 mM NaCl, 3 mM EDTA, 0.05% v/v Tween-20, pH 7.4); analyte 0.2-60 nM, re-run at 20-6000 nM if KD > 60 nM; settings: both partners purified
In short: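 Biotinylated ETV6 PNT domain (residues 43-135, Avitag-biotinylated) was diluted to 50 μg/ml in HBS-EP+ and captured on a streptavidin Sensor Chip SA in a Biacore X100 at 25 °C. PNT domain analytes were flowed at 0.2, 2, 20, 40 and 60 nM, or re-run at 20-6000 nM when binding was weaker. Chips were regenerated with 0.2% SDS for 30 s. Association and dissociation rate constants and equilibrium dissociation constant came from the Biacore kinetics/affinity software wizard.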

Binder	Kd [nM]	koff [s⁻¹]	kon [M⁻¹ s⁻¹]
B1	9.9	0.0034	350000
B2	15	0.0054	360000
B3	2340	0.0054	2300
B4	21	0.015	730000
B5	8.8	0.0054	620000
B6	480	0.037	78000
